Test results from publication PMC10570040 (Nucleic Acids Research, 2023).

B1: EnfR (TON_1525) T55I mutant (natural protein, Thermococcus onnurineus NA1, UniProt B6YTS4 1-146, looked up)
chain: MGSKSFLTEQQIKILRLRARGLKQSEIAELLGTSRANISILERRALEKIEKARNIITIWEQINSKISVEVRKGEDIFTVPDKLFKKADELQIKVPYSTAEIIAFLVEHAPISDRIAKRDFTLFLDARDRLRISECLLEEFDEIGKQ
notes: TON_1525 (EnfR) of Thermococcus onnurineus NA1, residues 1-146, with T55I; The T55I change first arose in an adaptive laboratory evolution (strain 156T / MC11); here made by site-directed mutagenesis; source: E. coli Rosetta (DE3), purified (75°C heat step, Ni-NTA, Superdex 75); not shown: His6, C-terminal, kept
B2: EnfR mutant with N-terminal six residues deleted (ΔN^1–6) (domain or fragment, Thermococcus onnurineus NA1, UniProt B6YTS4 7-146, looked up)
chain: LTEQQIKILRLRARGLKQSEIAELLGTSRANISILERRALEKIEKARNTITIWEQINSKISVEVRKGEDIFTVPDKLFKKADELQIKVPYSTAEIIAFLVEHAPISDRIAKRDFTLFLDARDRLRISECLLEEFDEIGKQ
notes: TON_1525 (EnfR) of Thermococcus onnurineus NA1, residues 1-146 without the N-terminal six residues (N-6 region, residues 1-6); The limits 7-146 follow from the printed deletion of residues 1-6 of the 1-146 construct; also called mutant with the N-6 region deleted; source: E. coli, purified by the same procedure as the wild-type; not shown: His6, C-terminal, kept
B3: TON_1525 ('eighth note' fold regulator, EnfR), wild-type (natural protein, Thermococcus onnurineus NA1, UniProt B6YTS4 1-146, looked up)
chain: MGSKSFLTEQQIKILRLRARGLKQSEIAELLGTSRANISILERRALEKIEKARNTITIWEQINSKISVEVRKGEDIFTVPDKLFKKADELQIKVPYSTAEIIAFLVEHAPISDRIAKRDFTLFLDARDRLRISECLLEEFDEIGKQ
notes: Synthetic gene in pET24a(+) with an in-frame non-cleavable C-terminal His6-tag; also called WT; wild-type EnfR; source: E. coli Rosetta (DE3), purified (75°C heat step, Ni-NTA, Superdex 75); not shown: His6, C-terminal, kept
B4: EnfR R43A mutant (natural protein, Thermococcus onnurineus NA1, UniProt B6YTS4 1-146, looked up)
chain: MGSKSFLTEQQIKILRLRARGLKQSEIAELLGTSRANISILEARALEKIEKARNTITIWEQINSKISVEVRKGEDIFTVPDKLFKKADELQIKVPYSTAEIIAFLVEHAPISDRIAKRDFTLFLDARDRLRISECLLEEFDEIGKQ
notes: TON_1525 (EnfR) of Thermococcus onnurineus NA1, residues 1-146, with R43A; source: E. coli, purified by the same procedure as the wild-type; not shown: His6, C-terminal, kept
B5: EnfR R35A mutant (natural protein, Thermococcus onnurineus NA1, UniProt B6YTS4 1-146, looked up)
chain: MGSKSFLTEQQIKILRLRARGLKQSEIAELLGTSAANISILERRALEKIEKARNTITIWEQINSKISVEVRKGEDIFTVPDKLFKKADELQIKVPYSTAEIIAFLVEHAPISDRIAKRDFTLFLDARDRLRISECLLEEFDEIGKQ
notes: TON_1525 (EnfR) of Thermococcus onnurineus NA1, residues 1-146, with R35A; source: E. coli, purified by the same procedure as the wild-type; not shown: His6, C-terminal, kept
B6: EnfR R44A mutant (natural protein, Thermococcus onnurineus NA1, UniProt B6YTS4 1-146, looked up)
chain: MGSKSFLTEQQIKILRLRARGLKQSEIAELLGTSRANISILERAALEKIEKARNTITIWEQINSKISVEVRKGEDIFTVPDKLFKKADELQIKVPYSTAEIIAFLVEHAPISDRIAKRDFTLFLDARDRLRISECLLEEFDEIGKQ
notes: TON_1525 (EnfR) of Thermococcus onnurineus NA1, residues 1-146, with R44A; source: E. coli, purified by the same procedure as the wild-type; not shown: His6, C-terminal, kept

Molecular target: the molecule itself
Assay: crystal structure; microbatch under oil at 22°C; space group P4(3)2(1)2, two monomers in the asymmetric unit

Protein | binding result
B1 | binds

Molecular target: the molecule itself
Assay: AUC; sedimentation velocity, 42,000 rpm, 20°C, absorbance at 280 nm, analysed with SEDFIT

Protein | stoichiometry N
B2 | 2
B3 | 2
B4 | 2
B5 | 2
B6 | 2
